In publication PMC5330840:

Target: Entamoeba histolytica ADP-forming acetyl-CoA synthetase, wild type (Entamoeba histolytica)
Assay: SEC

## Entamoeba histolytica ADP-forming acetyl-CoA synthetase, wild type (enzyme)
  stoichiometry N: 2
